Patent US20220235109A1 (CUGENE, published 2022)

T1: IL-2Rβγ on human CD8+ T cells, NK cells and CD4+ T cells (human, UniProt P14784 27-551; P31785 23-369)
T1 sequence (looked up) 1: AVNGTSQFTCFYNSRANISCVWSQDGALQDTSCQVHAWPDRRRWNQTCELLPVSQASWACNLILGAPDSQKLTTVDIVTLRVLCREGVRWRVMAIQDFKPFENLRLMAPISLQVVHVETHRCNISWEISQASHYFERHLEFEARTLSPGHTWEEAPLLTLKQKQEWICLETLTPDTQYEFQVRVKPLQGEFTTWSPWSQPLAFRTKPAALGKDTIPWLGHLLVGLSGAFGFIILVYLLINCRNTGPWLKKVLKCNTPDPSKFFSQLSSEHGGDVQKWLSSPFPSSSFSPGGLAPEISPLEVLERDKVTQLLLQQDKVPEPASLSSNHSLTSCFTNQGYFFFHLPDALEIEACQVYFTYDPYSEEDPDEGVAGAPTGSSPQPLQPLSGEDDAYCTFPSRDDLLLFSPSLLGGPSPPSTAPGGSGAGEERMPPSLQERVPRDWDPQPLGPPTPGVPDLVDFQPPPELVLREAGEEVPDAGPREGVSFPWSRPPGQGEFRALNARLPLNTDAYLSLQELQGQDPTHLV
T1 sequence (looked up) 2: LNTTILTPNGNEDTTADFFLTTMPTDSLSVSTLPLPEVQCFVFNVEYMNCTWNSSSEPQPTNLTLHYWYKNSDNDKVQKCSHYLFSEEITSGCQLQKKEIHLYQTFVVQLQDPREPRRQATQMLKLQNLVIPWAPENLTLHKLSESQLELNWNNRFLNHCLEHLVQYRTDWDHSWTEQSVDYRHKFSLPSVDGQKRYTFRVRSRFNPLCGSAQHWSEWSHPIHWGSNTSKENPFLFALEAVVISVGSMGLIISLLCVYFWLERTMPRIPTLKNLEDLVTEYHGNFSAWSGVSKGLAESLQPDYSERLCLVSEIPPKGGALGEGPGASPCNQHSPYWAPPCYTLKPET

T2: IL-2Rα-ECD (human, UniProt P01589 22-240)
T2 construct: coated on ELISA plates at 0.1 µg/well; also called CD25; receptor subunit α
T2 sequence: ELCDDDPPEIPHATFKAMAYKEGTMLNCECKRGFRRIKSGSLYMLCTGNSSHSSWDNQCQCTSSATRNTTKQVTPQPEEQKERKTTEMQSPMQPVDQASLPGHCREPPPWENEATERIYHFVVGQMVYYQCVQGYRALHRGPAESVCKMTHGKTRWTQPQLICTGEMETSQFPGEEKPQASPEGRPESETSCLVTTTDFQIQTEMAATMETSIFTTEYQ


Columns and labels:
[1] = molecular target: T1, IL-2Rβγ on human CD8+ T cells, NK cells …; test: cell-based or functional assay
IL-2Rα-ECD = molecular target: T2, IL-2Rα-ECD; test: ELISA, IL-2Rα-ECD coated
Method: A panel of IL-2 muteins was expressed as C-terminal fusions to the Fc homodimer of Fc heterodimer and screened for binding to IL-2Rα in enzyme-linked immunosorbent assay (ELISA). Briefly, IL-2Rα-ECD (SEQ ID NO: 5) was coated onto the wells of Nunc Maxisorp 96-well microplates at 0.1 μg/well. After overnight incubation at 4° C. and blocking with superblock (Thermo Fisher), 3-fold serial dilutions of IL-2 Fc fusion proteins starting at 100 nM were added to each well at 100 μI/well. Following one-hour incubation at room temperature, 100 μl/well of goat anti-human IgG Fc-HRP (1:5000 diluted in diluent) were added to each well and incubated at room temperature for 1 hour. Wells were thoroughly aspirated and washed three times with PBS/0.05% Tween-20 following each step. Finally, 100 μl TMB substrate was added to each well; the plate was developed at room temperature in the dark for 10 minutes, and 100 μl/well of stop solution (2N Sulfuric acid, Ricca Chemical) was added. Absorbance was determined at 450 nm and curves were fit using Prism software (Graph Pad).

Binder | Ki67 EC50 (nM), CD8+ T [1] [nM] | Ki67 EC50 (nM), NK [1] [nM] | pSTA5 EC50 (pM), CD8+ T [1] [pM] | pSTA5 EC50 (pM), NK [1] [pM] | Binding EC50 vs P-0689 (IL-2Rα-ECD) | binding result (IL-2Rα-ECD)
P-0880 (antibody, human IgG1, kappa) heavy 1: not shown heavy 2: EVQLVESGGGLVKPGGSLRLSCAASGFTFSSYDMSWVRQAPGKGLEWVATISGGGSYTYYPDSVKGRFTISRDNAKNSLYLQMNSLRAEDTAVYYCASPDSSGVAYWGQGTLVTVSSASTKGPSVFPLAPSSKSTSGGTAALGCLVKDYFPEPVTVSWNSGALTSGVHTFPAVLQSSGLYSLSSVVTVPSSSLGTQTYICNVNHKPSNTKVDKKVEPKSCDKTHTCPPCPAPEAAGAPSVFLFPPKPKDTLMISRTPEVTCVVVDVSHEDPEVKFNWYVDGVEVHNAKTKPREEQYNSTYRVVSVLTVLHQDWLNGKEYKCKVSNKALPAPIEKTISKAKGQPREPQVCTLPPSREEMTKNQVSLSCAVKGFYPSDIAVEWESNGQPENNYKTTPPVLDSDGSFFLVSKLTVDKSRWQQGNVFSCSVMHEALHNHYTQKSLSLSPG light: DIVMTQSPLSLPVTPGEPASITCKASQDVETVVAWYLQKPGQSPRLLIYWASTRHTGVPDRFSGSGSGTDFTLKISRVEAEDVGVYYCQQYSRYPWTFGQGTKLEIKRTVAAPSVFIFPPSDEQLKSGTASVVCLLNNFYPREAKVQWKVDNALQSGNSQESVTEQDSKDSTYSLSSTLTLSKADYEKHKVYACEVTHQGLSSPVTKSFNRGEC | 1.7 | 3.6 | 73 | 643 | – | –
P-0882 (antibody, human IgG1, kappa) heavy 1: EVQLVESGGGLVKPGGSLRLSCAASGFTFSSYDMSWVRQAPGKGLEWVATISGGGSYTYYPDSVKGRFTISRDNAKNSLYLQMNSLRAEDTAVYYCASPDSSGVAYWGQGTLVTVSSASTKGPSVFPLAPSSKSTSGGTAALGCLVKDYFPEPVTVSWNSGALTSGVHTFPAVLQSSGLYSLSSVVTVPSSSLGTQTYICNVNHKPSNTKVDKKVEPKSCDKTHTCPPCPAPEAAGAPSVFLFPPKPKDTLMISRTPEVTCVVVDVSHEDPEVKFNWYVDGVEVHNAKTKPREEQYNSTYRVVSVLTVLHQDWLNGKEYKCKVSNKALPAPIEKTISKAKGQPREPQVYTLPPCREEMTKNQVSLWCLVKGFYPSDIAVEWESNGQPENNYKTTPPVLDSDGSFFLYSKLTVDKSRWQQGNVFSCSVMHEALHNHYTQKSLSLSPGGGGGSGGGGSGGGGSAPTSSSTKKTQLQLEHLLHDLQMILNGINNYKNPKLTRMLTFKFYMPKKATELKHLQCLEEELKRLEEVLNLAQSKNFHLRPRDLISNINVIVLELKGSETTFMCEYADETATIVEFLNRWITFIQSIISTLT heavy 2: EVQLVESGGGLVKPGGSLRLSCAASGFTFSSYDMSWVRQAPGKGLEWVATISGGGSYTYYPDSVKGRFTISRDNAKNSLYLQMNSLRAEDTAVYYCASPDSSGVAYWGQGTLVTVSSASTKGPSVFPLAPSSKSTSGGTAALGCLVKDYFPEPVTVSWNSGALTSGVHTFPAVLQSSGLYSLSSVVTVPSSSLGTQTYICNVNHKPSNTKVDKKVEPKSCDKTHTCPPCPAPEAAGAPSVFLFPPKPKDTLMISRTPEVTCVVVDVSHEDPEVKFNWYVDGVEVHNAKTKPREEQYNSTYRVVSVLTVLHQDWLNGKEYKCKVSNKALPAPIEKTISKAKGQPREPQVCTLPPSREEMTKNQVSLSCAVKGFYPSDIAVEWESNGQPENNYKTTPPVLDSDGSFFLVSKLTVDKSRWQQGNVFSCSVMHEALHNHYTQKSLSLSPG light: DIVMTQSPLSLPVTPGEPASITCKASQDVETVVAWYLQKPGQSPRLLIYWASTRHTGVPDRFSGSGSGTDFTLKISRVEAEDVGVYYCQQYSRYPWTFGQGTKLEIKRTVAAPSVFIFPPSDEQLKSGTASVVCLLNNFYPREAKVQWKVDNALQSGNSQESVTEQDSKDSTYSLSSTLTLSKADYEKHKVYACEVTHQGLSSPVTKSFNRGEC | 77 | 230 | 513 | 9920 | – | –
P-0885 (antibody, human IgG1, kappa) heavy 1: EVQLVESGGGLVKPGGSLRLSCAASGFTFSSYDMSWVRQAPGKGLEWVATISGGGSYTYYPDSVKGRFTISRDNAKNSLYLQMNSLRAEDTAVYYCASPDSSGVAYWGQGTLVTVSSASTKGPSVFPLAPSSKSTSGGTAALGCLVKDYFPEPVTVSWNSGALTSGVHTFPAVLQSSGLYSLSSVVTVPSSSLGTQTYICNVNHKPSNTKVDKKVEPKSCDKTHTCPPCPAPEAAGAPSVFLFPPKPKDTLMISRTPEVTCVVVDVSHEDPEVKFNWYVDGVEVHNAKTKPREEQYNSTYRVVSVLTVLHQDWLNGKEYKCKVSNKALPAPIEKTISKAKGQPREPQVYTLPPCREEMTKNQVSLWCLVKGFYPSDIAVEWESNGQPENNYKTTPPVLDSDGSFFLYSKLTVDKSRWQQGNVFSCSVMHEALHNHYTQKSLSLSPGGGGGSGGGGSGGGGSAPTSSSTKKTQLQLEHLLQDLQMILNGINNYKNPKLTRMLTFKFYMPKKATELKHLQCLEEELKRLEEVLNLAQSKNFHLRPRDLISNINVIVLELKGSETTFMCEYADETATIVEFLNRWITFIQSIISTLT heavy 2: EVQLVESGGGLVKPGGSLRLSCAASGFTFSSYDMSWVRQAPGKGLEWVATISGGGSYTYYPDSVKGRFTISRDNAKNSLYLQMNSLRAEDTAVYYCASPDSSGVAYWGQGTLVTVSSASTKGPSVFPLAPSSKSTSGGTAALGCLVKDYFPEPVTVSWNSGALTSGVHTFPAVLQSSGLYSLSSVVTVPSSSLGTQTYICNVNHKPSNTKVDKKVEPKSCDKTHTCPPCPAPEAAGAPSVFLFPPKPKDTLMISRTPEVTCVVVDVSHEDPEVKFNWYVDGVEVHNAKTKPREEQYNSTYRVVSVLTVLHQDWLNGKEYKCKVSNKALPAPIEKTISKAKGQPREPQVCTLPPSREEMTKNQVSLSCAVKGFYPSDIAVEWESNGQPENNYKTTPPVLDSDGSFFLVSKLTVDKSRWQQGNVFSCSVMHEALHNHYTQKSLSLSPG light: DIVMTQSPLSLPVTPGEPASITCKASQDVETVVAWYLQKPGQSPRLLIYWASTRHTGVPDRFSGSGSGTDFTLKISRVEAEDVGVYYCQQYSRYPWTFGQGTKLEIKRTVAAPSVFIFPPSDEQLKSGTASVVCLLNNFYPREAKVQWKVDNALQSGNSQESVTEQDSKDSTYSLSSTLTLSKADYEKHKVYACEVTHQGLSSPVTKSFNRGEC | 9.3 | 21 | 249 | 2330 | – | –
P-0702 (Fc fusion, knob chain carries the IL-2 variant; hole-Fc; monovalent; also called IL-2 F42A/E62F/S125I monovalent Fc fusion) chain 1: DKTHTCPPCPAPEAAGAPSVFLFPPKPKDTLMISRTPEVTCVVVDVSHEDPEVKFNWYVDGVEVHNAKTKPREEQYNSTYRVVSVLTVLHQDWLNGKEYKCKVSNKALPAPIEKTISKAKGQPREPQVCTLPPSREEMTKNQVSLWCLVKGFYPSDIAVEWESNGQPENNYKTTPPVLDSDGSFFLYSKLTVDKSRWQQGNVFSCSVMHEALHNHYTQKSLSLSPGGGGSGGGSAPTSSSTKKTQLQLEHLLLDLQMILNGINNYKNPKLTRMLTAKFYMPKKATELKHLQCLEEFLKPLEEVLNLAQSKNFHLRPRDLISNINVIVLELKGSETTFMCEYADETATIVEFLNRWITFIQSIISTLT chain 2: DKTHTCPPCPAPEAAGAPSVFLFPPKPKDTLMISRTPEVTCVVVDVSHEDPEVKFNWYVDGVEVHNAKTKPREEQYNSTYRVVSVLTVLHQDWLNGKEYKCKVSNKALPAPIEKTISKAKGQPREPQVYTLPPCREEMTKNQVSLSCAVKGFYPSDIAVEWESNGQPENNYKTTPPVLDSDGSFFLVSKLTVDKSRWQQGNVFSCSVMHEALHNHYTQKSLSLSPG | – | – | – | – | > 500 fold (ratio of EC50s) | no binding
P-0703 (Fc fusion, knob chain carries the IL-2 variant; hole-Fc; monovalent; also called IL-2 F42A/P65H/S125I monovalent Fc fusion) chain 1: DKTHTCPPCPAPEAAGAPSVFLFPPKPKDTLMISRTPEVTCVVVDVSHEDPEVKFNWYVDGVEVHNAKTKPREEQYNSTYRVVSVLTVLHQDWLNGKEYKCKVSNKALPAPIEKTISKAKGQPREPQVCTLPPSREEMTKNQVSLWCLVKGFYPSDIAVEWESNGQPENNYKTTPPVLDSDGSFFLYSKLTVDKSRWQQGNVFSCSVMHEALHNHYTQKSLSLSPGGGGSGGGSAPTSSSTKKTQLQLEHLLLDLQMILNGINNYKNPKLTRMLTAKFYMPKKATELKHLQCLEEELKHLEEVLNLAQSKNFHLRPRDLISNINVIVLELKGSETTFMCEYADETATIVEFLNRWITFIQSIISTLT chain 2: DKTHTCPPCPAPEAAGAPSVFLFPPKPKDTLMISRTPEVTCVVVDVSHEDPEVKFNWYVDGVEVHNAKTKPREEQYNSTYRVVSVLTVLHQDWLNGKEYKCKVSNKALPAPIEKTISKAKGQPREPQVYTLPPCREEMTKNQVSLSCAVKGFYPSDIAVEWESNGQPENNYKTTPPVLDSDGSFFLVSKLTVDKSRWQQGNVFSCSVMHEALHNHYTQKSLSLSPG | – | – | – | – | > 500 fold (ratio of EC50s) | no binding
